Data on four molecules can be found in patent publication US20240294613A1 (BROAD INSTITUTE, published 2024).

The target of assay [1] is SARS-COV-2 full-length S (containing G at position 614) (SARS-COV-2, UniProt P0DTC2 14-1273). Kind of assay: cell-based or functional assay.
For assay [2] the target is unchanged. The experiment in a line: cell-based or functional assay. The source holds these as a separate data set.

B1: BG10-8 dimeric IgA (antibody, V domains shown)
VH: QMELVESGGGLVKPGGSLRLSCASSGFSLGDYYMTWIRQAPGKGLEWVSYISRSDGKTFYADSVKGRFTLSTDDGKKSLYLQMNSLRAEDTAVYYCVRGEGGPHDAFDIWGQGTMVTVSS
VL: TSYVLTQPPSVSVAPGQTARISCGGNNIESKTVHWYQQKPGQAPILVVYDDNDRPSGIPERFSGSNSGNTATLSISRAEAGDEADYYCQVWDSSRDLRVFGGGTKLSVLG
B1: in assay [1], the “IC50, SARS-COV-2 pseudovirus neutralization” value is 0.026 µg/mL and the “molar neutralization ratio (MNR)” value was found to be 10.9.

B2: BG7-15 (antibody, V domains shown)
VH: QVQLVQSGAEVKKPGASVKVSCKASGYTFTSYAISWVRQAPGQGLEWMGWVSAYNGNTNYAQKLQGRVTMTTDTSTNTAYMELRSLRSDDTAIYYCAIPYSSVTFDCWGQGTLVTVSS
VL: EIVLTQSPGTLSLSPGERATLSCRASQSVSGTFLAWYQQKPGQAPRLLISGASSRATGIPDRFSGSGSGTDFTLTISRLEPEDFAVYYCQQYGSSRPTFGQGTKLEIKR
As to B2, in assay [2], the “PV IC50” value was found to be 0.016 µg/mL.

B3: BG7-18 (antibody, V domains shown)
VH: EVQLMESGGGLIQPGGSLRLSCAASGFIVSSNYMSWVRQAPGKGLEWVSVIYSGGGTDYADSVKGRFTISRDNSKNTLFLQMNSLRAEDTAVYYCARGAAMVKELFDYWGQGTQVTVSS
VL: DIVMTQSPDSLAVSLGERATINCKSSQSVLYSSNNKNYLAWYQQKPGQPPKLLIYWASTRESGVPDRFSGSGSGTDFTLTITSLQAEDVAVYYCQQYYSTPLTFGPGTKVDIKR
B3: in assay [2], the “PV IC50” value was 0.083 µg/mL.

B4: BG1-15 dimeric IgA (antibody, V domains shown)
VH: DVQLVESGGVVVQPGGSLRLACAASGFTFDDYAMHWVRQAPGKGLEWVSLITRDGGSTHYADSVKGRFTISRDNSKNSLYLQMNSLRLEDTAFYYCAKDGRRDGYNHALDNWGQGTLVTVSS
VL: DIQMTQSPSTLSASVGDRVTITCRASQSISSWLAWYQQKPGKAPKLLINRASSLESGVPSRFSGSGSGTEFTLTISSLQPDDFATYYCQQYSSYPTFGQGTKVEIKR
B4: the “IC50, SARS-COV-2 pseudovirus neutralization” value in assay [1] turned out to be 6.5 µg/mL.
